What was measured:
[1] = target: H1N1 hemagglutinin (Cat No.: Z03181, GenScript), full-length recombinant HA (His-Tag) (influenza A virus H1N1 (strain not stated)); test: SPR
[2] = target: H1N1 hemagglutinin (Cat No.: Z03181, GenScript), full-length recombinant HA (His-Tag) (influenza A virus H1N1 (strain not stated)); test: MST; fluorescently labelled His-HA (NT647-HA) held constant, peptide in 16 1:1 serial dilutions from 50 µM; assay buffer PBS; 10 min incubation at rt; standard-treated capillaries; high MST power, 10% LED power; Monolith NT.115pico; triplicate
[3] = target: H1N1 hemagglutinin (Cat No.: Z03181, GenScript), full-length recombinant HA (His-Tag) (influenza A virus H1N1 (strain not stated)); test: SPR; remark: listed apart in the source

| Binder | Kd [1] | Kd [2] | Kd [3] |
| --- | --- | --- | --- |
| Ac-SKAS-NH2 [peptide 5 (Ac-SKAS-NH2)] | 1.03 µM | 7.01 µM | – |
| Ac-SLDA-NH2 [peptide 10 (Ac-SLDA-NH2)] | 0.343 µM | 2.69 µM | – |
| Ac-SADC-NH2 [peptide 8 (Ac-SADC-NH2)] | 2.19 µM | 6.38 µM | – |
| Ac-AKHS-NH2 [peptide 3 (Ac-AKHS-NH2)] | 2.7 µM | 3.12 µM | – |
| Ac-SKHA-NH2 [peptide 6 (Ac-SKHA-NH2)] | 6.75 µM | 11.4 µM | – |
| Ac-ALDC-NH2 [peptide 7 (Ac-ALDC-NH2)] | 0.0277 µM | 21.2 µM | – |
| Ac-SLAC-NH2 [peptide 9 (Ac-SLAC-NH2)] | 2.57 µM | 0.0058 µM | – |
| Ac-SAHS-NH2 [peptide 4 (Ac-SAHS-NH2)] | 0.0035 µM | 0.0082 µM | 0.00357 µM |

Source: article PMC8537277 (Pharmaceuticals, 2021)
